Patent US5817490A, “Enzymatic process for the manufacture of ascorbic acid 2-keto-L-gulonic acid and esters of 2-keto-L-gulonic acid” (Eastman Chemical Company, priority 1997, dated 1998)
Read-outs that look alike come from different tables or passages of the source. Each block holds one molecule with its values, some of them ahead of it.

Columns and labels:
[1] = assay type: physicochemical
Procedure: HPLC sample standards were prepared by dissolving KLG, MeKLG, ascorbic acid (ASA), and butyl-KLG to the appropriate concentration in water. Samples of these standards were placed in filled and sealed vials, stored at room temperature, and analyzed periodically. The HPLC was calibrated on the area response for standards that were injected onto the HPLC as soon as possible after the preparation of the standards.

[2] = solubility of butyl-KLG in water; assay type: physicochemical
From the text: The recrystallized butyl-KLG of this example had satisfactory proton and carbon NMR spectra and gave the predicted molecular weight by field desorption mass spectrometry.

[3] = enzyme screen for hydrolysis/methanolysis of butyl-KLG (HPLC of products and remaining substrate); assay type: biochemical; set-up: KLG formed / MeKLG formed / ASA formed / BuKLG (remaining substrate): unit: ppm
Procedure: (§1) Initial enzyme screens were carried out as follows. Enzyme (typically 10 mg), aqueous buffer (typically 860 microliters (ul) or 550 ul), aqueous 0.2M CaCl2 (10 ul), methanol (typically 90 ul or 400 ul), and an aqueous solution of substrate (typically 90 ul of butyl-KLG at a typical concentration of 110,000 ppm) were added to a 2 ml polypropylene centrifuge tube. The resulting solution was vortexed briefly and placed on a shaker bath at 300 rpm at 38° C. (typically for 18 hours or more). After incubation, samples were centrifuged at 14,000 G's (14,000 times gravity) for 20 minutes to remove enzyme, sampled (300 ul), and diluted to one milliliter with distilled water. If not analyzed by HPLC within the day, samples were frozen prior to analysis.
The data were reported in terms of parts per million of KLG, MeKLG, ascorbic acid (ASA) and butyl-KLG. […] Samples labeled as "no enzyme" were controls within a given run. The controls contained substrate but no enzyme and thus represented experimental and HPLC background data.

[4] = enzyme screen for methanolysis of KLG; assay type: biochemical; set-up: unit not given here; conditions: Table 14: 38° C., 19 Hours, 8.6% Methanol-Water, 0.2M MES Buffer
Procedure: as §1

[5] = Example 4: 38% methanol-water, MES, pH 5 to 5.8
[6] = Example 8: 8.6% methanol-water, MES, pH approximately 5.8 to 6.2
[7] = Example 9: 8.6% methanol-water, 0.2M MES
[8] = Table 3: 38° C., 16 Hours, 38% Methanol-Water, 0.1M MES Buffer
[9] = Table 4: 38° C., 47.5 Hours, 38% Methanol-Water, 0.1M MES Buffer
[10] = Table 7: 38° C., 19 Hours, 8.6% Methanol-Water, 0.1M MES
[11] = Table 8: 38° C., 21 Hours, 8.6% Methanol-Water, 0.2 M MES
[12] = Table 9: 38° C., 19 Hours, 8.6% Methanol-Water, 0.2M MES Buffer
[13] = Table 10: 38° C., 19 Hours, 38% Methanol-Water, 0.2M MES Buffer
[14] = Table 11: 38° C., ca. 19 Hours, 8.6% Methanol-Water, 0.2M Pyridine/Pyridinium Hydrochloride
[15] = Table 12: 38° C., ca. 19 Hours, 38% Methanol-Water, 0.2M pyridine buffer, pH 4.7 to 5.1
[16] = Table 13: 38° C., 20 Hours, 8.6% Methanol-Water, pH 2.3, 0.2M Phosphate Buffer

Amount Found ([1]; 50 ppm standard, 0 minutes): 50.6 ppm
Amount Found ([1]; 50 ppm standard, 400 minutes): 42.7 ppm
Amount Found ([1]; 50 ppm standard, 715 minutes): 38.2 ppm
Amount Found ([1]; 100 ppm standard, 0 minutes): 101 ppm
Amount Found ([1]; 100 ppm standard, 400 minutes): 100.1 ppm
Amount Found ([1]; 100 ppm standard, 715 minutes): 94.2 ppm
Amount Found ([1]; 500 ppm standard, 0 minutes): 506 ppm
Amount Found ([1]; 500 ppm standard, 400 minutes): 512 ppm
Amount Found ([1]; 500 ppm standard, 715 minutes): 499 ppm
solubility [2]: ≥ 500 mg/mL
Molecule: CCCCOC(=O)C(=O)[C@@H](O)[C@H](O)[C@@H](O)CO [butyl-KLG, butyl 2-keto-L-gulonate]

selectivity (transesterification) [3, 7]: selectivity toward transesterification
ASA formed [3, 8]: 294 ppm
KLG formed [3, 8]: 446 ppm
MeKLG formed [3, 8]: 4377 ppm
ASA formed [3, 9]: 246 ppm
KLG formed [3, 9]: 705 ppm
MeKLG formed [3, 9]: 2720 ppm
ASA formed [3, 10]: 423
KLG formed [3, 10]: 2726
MeKLG formed [3, 10]: 3731
ASA formed [3, 11]: 717 ppm
KLG formed [3, 11]: 2373 ppm
MeKLG formed [3, 11]: 4167 ppm
ASA formed [3, 12]: 650 ppm
KLG formed [3, 12]: 1947 ppm
MeKLG formed [3, 12]: 4258 ppm
ASA formed [3, 13]: 173 ppm
KLG formed [3, 13]: 203 ppm
MeKLG formed [3, 13]: 1654 ppm
ASA formed [3, 14]: 37 ppm
KLG formed [3, 14]: 1613 ppm
MeKLG formed [3, 14]: 5787 ppm
ASA formed [3, 15]: 0
KLG formed [3, 15]: 47
MeKLG formed [3, 15]: 197
ASA formed [3, 16]: 0
KLG formed [3, 16]: 417
MeKLG formed [3, 16]: 93
ASA formed [4]: 0
BuKLG [4]: 0
MeKLG formed [4]: 0
B1: Pig Liver Esterase: pig liver esterase (a hydrolase) (protein)
chain: MWLLPLVLTSLASSATWAGQPASPPVVDTAQGRVLGKYVSLEGLAFTQPVAVFLGVPFAKPPLGSLRFAPPQPAEPWSFVKNTTSYPPMCCQDPVVEQMTSDLFTNFTGKERLTLEFSEDCLYLNIYTPADLTKRGRLPVMVWIHGGGLVLGGAPMYDGVVLAAHENFTVVVVAIQYRLGIWGFFSTGDEHSRGNWGHLDQVAALHWVQENIANFGGDPGSVTIFGESFTAGGESVSVLVLSPLAKNLFHRAISESGVALTVALVRKDMKAAAKQIAVLAGCKTTTSAVFTFVHCLRQKSEDELLDLTLKMKFLTLDFHGDQRESHPFLPTVVDGVLLPKMPEEILAEKDFTFNTVPYIVGINKQEFGWLLPTMMGFPLSEGKLDQKTATSLLWKSYPIANIPEELTPVATFTDKYLGGTDDPVKKKDLFLDLMGDVVFGVPSVTVARQHRDAGAPTYMYEFQYRPSFSSDKFTKPKTVIGDHGDEIFSVFGFPLLKGDAPEEEVSLSKTVMKFWANFARSGNPNGEGLPHWPFTMYDQEEGYLQIGVNTQAAKRLKGEEVAFWNDLLSKEAAKKPPKIKHAEL
levels of activity / conversion of butyl-KLG ([3]; Example 3: 38% methanol-water, MES, pH 4.8 to 5.8): particularly high levels of activity
levels of activity / conversion of butyl-KLG [3, 5]: particularly high levels of activity
levels of activity / conversion of butyl-KLG ([3]; Example 7: 8.6% methanol-water, MES, pH approximately 5 to 6): particularly high levels of activity
levels of activity / conversion of butyl-KLG [3, 6]: particularly high levels of activity
conversions to ascorbic acid [3, 7]: significant conversions to ascorbic acid
levels of activity / conversion of butyl-KLG ([3]; Example 9: 8.6% methanol-water, 0.2M MES, pH approximately 5.6 to 6): particularly high levels of activity
levels of activity / conversion of butyl-KLG ([3]; Example 10: 38% methanol-water, 0.2M MES, pH approximately 5.6 to 6.2): Decreased, although still appreciable, activity
levels of activity / conversion of butyl-KLG ([3]; Example 11: 8.6% methanol-water, pyridine buffer, pH approximately 4.9 to 5.3): particularly high levels of activity
BuKLG (remaining substrate) [3, 8]: 5711 ppm
BuKLG (remaining substrate) [3, 9]: 1368 ppm
BuKLG (remaining substrate) [3, 10]: 10
BuKLG (remaining substrate) [3, 11]: 83 ppm
BuKLG (remaining substrate) [3, 12]: 0 ppm
BuKLG (remaining substrate) [3, 13]: 7030 ppm
BuKLG (remaining substrate) [3, 14]: 390 ppm
BuKLG (remaining substrate) [3, 15]: 11750
BuKLG (remaining substrate) [3, 16]: 9500
KLG (remaining substrate) [4]: 4393

Further lines, the molecule ahead of its results:

Molecule: O=C(O)C(=O)[C@@H](O)[C@H](O)[C@@H](O)CO [KLG, 2-keto-L-gulonic acid]
Amount Found ([1]; 50 ppm standard, 0 minutes): 51 ppm
Amount Found ([1]; 50 ppm standard, 400 minutes): 39.9 ppm
Amount Found ([1]; 50 ppm standard, 715 minutes): 52 ppm
Amount Found ([1]; 100 ppm standard, 0 minutes): 102 ppm
Amount Found ([1]; 100 ppm standard, 400 minutes): 94.3 ppm
Amount Found ([1]; 100 ppm standard, 715 minutes): 81.8 ppm
Amount Found ([1]; 500 ppm standard, 0 minutes): 510 ppm
Amount Found ([1]; 500 ppm standard, 400 minutes): 479 ppm
Amount Found ([1]; 500 ppm standard, 715 minutes): 493 ppm

Molecule: COC(=O)C(=O)[C@@H](O)[C@H](O)[C@@H](O)CO [MeKLG, methyl-2-keto-L-gulonate]
Amount Found ([1]; 50 ppm standard, 0 minutes): 51.4 ppm
Amount Found ([1]; 50 ppm standard, 400 minutes): 47.7 ppm
Amount Found ([1]; 50 ppm standard, 715 minutes): 43 ppm
Amount Found ([1]; 100 ppm standard, 0 minutes): 103 ppm
Amount Found ([1]; 100 ppm standard, 400 minutes): 106.8 ppm
Amount Found ([1]; 100 ppm standard, 715 minutes): 90.2 ppm
Amount Found ([1]; 500 ppm standard, 0 minutes): 514 ppm
Amount Found ([1]; 500 ppm standard, 400 minutes): 496 ppm
Amount Found ([1]; 500 ppm standard, 715 minutes): 495 ppm

B2: ChiroCLEC-BL (Dry): crystalline crosslinked enzyme, a crystalline form of Subtilisin (a protease) (Altus Biologics) (protein, UniProt P00780 106-379, looked up)
Subtilisin Carlsberg: AQTVPYGIPLIKADKVQAQGFKGANVKVAVLDTGIQASHPDLNVVGGASFVAGEAYNTDGNGHGTHVAGTVAALDNTTGVLGVAPSVSLYAVKVLNSSGSGSYSGIVSGIEWATTNGMDVINMSLGGASGSTAMKQAVDNAYAKGVVVVAAAGNSGSSGNTNTIGYPAKYDSVIAVGAVDSNSNRASFSSVGAELEVMAPGAGVYSTYPTNTYATLNGTSMASPHVAGAAALILSKHPNLSASQVRNRLSSTATYLGSSFYYGKGLINVEAAAQ
modifications: crystalline cross-linked enzyme
levels of activity / conversion of butyl-KLG [3, 5]: particularly high levels of activity
levels of activity / conversion of butyl-KLG [3, 6]: particularly high levels of activity
ASA formed [3, 8]: 3 ppm
BuKLG (remaining substrate) [3, 8]: 5123 ppm
KLG formed [3, 8]: 194 ppm
MeKLG formed [3, 8]: 642 ppm
ASA formed [3, 9]: 54 ppm
BuKLG (remaining substrate) [3, 9]: 634 ppm
KLG formed [3, 9]: 3744 ppm
MeKLG formed [3, 9]: 1724 ppm
ASA formed [3, 10]: 135
BuKLG (remaining substrate) [3, 10]: 4051
KLG formed [3, 10]: 2860
MeKLG formed [3, 10]: 1233
ASA formed [3, 11]: 6 ppm
BuKLG (remaining substrate) [3, 11]: 1376 ppm
KLG formed [3, 11]: 4293 ppm
MeKLG formed [3, 11]: 1282 ppm
ASA formed [3, 12]: 215 ppm
BuKLG (remaining substrate) [3, 12]: 3045 ppm
KLG formed [3, 12]: 3485 ppm
MeKLG formed [3, 12]: 1235 ppm
ASA formed [3, 13]: 102 ppm
BuKLG (remaining substrate) [3, 13]: 5572 ppm
KLG formed [3, 13]: 1261 ppm
MeKLG formed [3, 13]: 1693 ppm
ASA formed [3, 14]: 67 ppm
BuKLG (remaining substrate) [3, 14]: 5603 ppm
KLG formed [3, 14]: 987 ppm
MeKLG formed [3, 14]: 1360 ppm
ASA formed [3, 15]: 7
BuKLG (remaining substrate) [3, 15]: 10950
KLG formed [3, 15]: 97
MeKLG formed [3, 15]: 447
ASA formed [3, 16]: 0
BuKLG (remaining substrate) [3, 16]: 10580
KLG formed [3, 16]: 387
MeKLG formed [3, 16]: 0
ASA formed [4]: 0
BuKLG [4]: 0
KLG (remaining substrate) [4]: 3270
MeKLG formed [4]: 0
